US9120851B2, “Human antibodies to human angiopoietin-like protein 4” (Regeneron Pharmaceuticals, Inc., priority 2009, dated 2015)
One block for each molecule: values may come before it.

How the values were obtained:
[1] = tested on: C57BL/6 mice given hANGPTL4-mFc; assay type: in vivo; settings: antibody 5 mg/kg s.c.; 24 h later hANGPTL4-mFc 25 μg/mouse i.v.; bled 30 min after; mean±SEM
Method: In another set of experiments, selected anti-hANGPTL4 antibodies were tested for their ability to inhibit hANGPTL4-induced increase of triglyceride levels. Measurements of total cholesterol, LDL, NEFA-C and HDL were also made. Briefly, C57BL/6 mice were put into groups of five mice each for each antibody tested. Antibodies were administered at 5 mg/kg dose by subcutaneous injection. Control group I, i.e., mice that received neither anti-hANGPTL4 antibodies nor hANGPTL4, were administered with PBS. Twenty-four hours post-injection of antibody, hANGPTL4-mFc (SEQ ID NO:480) was administered (i.v.) at a dose of 25 μg/mouse to each antibody group. Mice were bled at 30 min after hANGPTL4-mFc injection and lipid levels were determined by ADVIA® 1650 Chemistry System (Siemens). Averages were calculated for each of the measurements of triglycerides, total cholesterol (Total-C), LDL, NEFA-C and HDL for each antibody or control group. Levels of circulating anti-hANGPTL4 antibodies (Serum Ab) were also determined using a standard ELISA assay. Briefly, plates were coated with a goat anti-human Fc antibody (Sigma-Aldrich) to capture Serum Ab. Serum was then added to the plates and captured anti-hANGPTL4 antibodies were detected by chemiluminescence using a horseradish peroxidase (HRP) conjugated goat anti-human IgG antibody (Sigma-Aldrich). Control I: Mice that received PBS, but neither anti-hANGPTL4 antibodies nor hANGPTL4-mFc. Control II: Mice that received a human antibody specific for CD20 (i.e., the mAb having the sequence of 2F2 clone disclosed in US 2008/0260641) and hANGPTL4-mFc.

hANGPTL4(26-148)-mFc [2] = molecular target: T1, hANGPTL4(26-148)-mFc (Homo sapiens, UniProt Q9BY76); assay: BIACORE, full mAb or Fab over anti-mFc captured hANGPTL4(26-148)-mFc; assay type: binding
T1 construct: amino acid residues 26-148 of human ANGPTL4 fused in-line to mouse IgG2a (hANGPTL4-mFc)
T1 sequence (Q9BY76 with tags, fused parts or gaps): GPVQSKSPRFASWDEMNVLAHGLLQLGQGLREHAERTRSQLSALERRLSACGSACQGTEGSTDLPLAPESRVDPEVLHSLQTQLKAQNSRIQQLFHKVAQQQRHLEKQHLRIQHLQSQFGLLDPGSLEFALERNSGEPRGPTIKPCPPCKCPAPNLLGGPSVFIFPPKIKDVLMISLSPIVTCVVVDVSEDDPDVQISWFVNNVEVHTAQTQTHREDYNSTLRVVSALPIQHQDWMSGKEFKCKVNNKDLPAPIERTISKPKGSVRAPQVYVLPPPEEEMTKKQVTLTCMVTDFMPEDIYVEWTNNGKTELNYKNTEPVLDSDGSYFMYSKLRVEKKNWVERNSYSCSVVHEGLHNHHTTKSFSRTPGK

mANGPTL4-His = molecular target: T2, mANGPTL4-His (Mus musculus, UniProt Q9Z1P8); assay: BIACORE cross-reactivity, amine coupled mANGPTL4-His; assay type: binding; settings: for Specific RU, mANGPTL4-His: chip surface 5233 RU, mAb injected at 3.125-50 μg/mL
T2 sequence (Q9Z1P8 26-410): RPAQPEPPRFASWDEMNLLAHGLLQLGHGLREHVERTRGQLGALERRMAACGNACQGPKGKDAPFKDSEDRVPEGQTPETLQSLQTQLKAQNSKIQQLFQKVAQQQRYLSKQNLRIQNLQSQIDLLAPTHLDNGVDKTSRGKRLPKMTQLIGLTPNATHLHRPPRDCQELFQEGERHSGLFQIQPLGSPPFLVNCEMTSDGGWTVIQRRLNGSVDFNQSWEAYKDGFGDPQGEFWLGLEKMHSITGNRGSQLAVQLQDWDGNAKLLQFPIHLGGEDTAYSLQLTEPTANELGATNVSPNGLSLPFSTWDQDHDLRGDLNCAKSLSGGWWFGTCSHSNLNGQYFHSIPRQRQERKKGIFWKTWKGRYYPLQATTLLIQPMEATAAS
Method: (§1) Possible cross-reactivity of the anti-hANGPTL4 antibodies to related proteins, i.e., hANGPTL3, human angiopoietin-like protein 5 (hANGPTL5) and mouse ANGPTL4 (mANGPTL4), was tested for the selected antibodies, i.e., H1H268P and H1H284P, using the BIACORE™ system. Briefly, anti-hANGPTL4 antibodies as well as negative controls, i.e., two monoclonal antibodies (Control a and Control b) that are non-binders to any ANGPTL proteins, were injected at 3.125 μg/mL-50 μg/mL over amine coupled chip surfaces of hANGPTL3-His (R&D Systems, cat #3829-AN) at 5228 RU, hANGPTL4-His (R&D Systems, cat #4487-AN) at 6247 RU, hANGPTL5-His (Abnova Corp., cat #H00253935-P01) at 5265 RU, and mANGPTL4-His [R26-S410 of mANGPTL4 (SEQ ID NO: 478) fused with an AS linker to a C-terminal 6-histidine tag] at 5233 RU, respectively. A polyclonal antibody specific for hANGPTL3 (R&D System, cat #BAF3485) was also tested.

hANGPTL4-His = molecular target: T3, hANGPTL4-His (Homo sapiens, UniProt Q9BY76); assay: BIACORE cross-reactivity, amine coupled hANGPTL4-His; assay type: binding; settings: for Specific RU, hANGPTL4-His: chip surface 6247 RU, mAb injected at 3.125-50 μg/mL
T3 construct: purchased R&D Systems 4487-AN
T3 sequence (Q9BY76 26-406): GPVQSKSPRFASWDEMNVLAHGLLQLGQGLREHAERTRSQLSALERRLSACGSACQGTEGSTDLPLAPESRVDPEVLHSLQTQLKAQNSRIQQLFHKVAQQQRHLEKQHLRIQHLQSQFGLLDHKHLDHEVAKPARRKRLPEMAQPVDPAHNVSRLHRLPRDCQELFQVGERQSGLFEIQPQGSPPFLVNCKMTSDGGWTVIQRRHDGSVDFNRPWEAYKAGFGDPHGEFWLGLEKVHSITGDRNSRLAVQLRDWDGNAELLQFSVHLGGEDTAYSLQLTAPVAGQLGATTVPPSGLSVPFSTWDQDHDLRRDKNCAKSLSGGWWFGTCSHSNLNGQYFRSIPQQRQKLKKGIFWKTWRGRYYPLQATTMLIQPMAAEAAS
Method: as §1

hANGPTL4(26-148)-mFc [3] = molecular target: T1, hANGPTL4(26-148)-mFc; assay: BIACORE, full mAb or Fab over anti-mFc captured hANGPTL4(26-148)-mFc; assay type: binding; remark: listed apart in the source
Method: Briefly, various concentrations (3.125 nM-100 nM) of anti-hANGPTL4 antibodies (i.e., H1H268 Fab, entire H1H268 mAb, H1H284 Fab, and entire H1H284 mAb) were injected over a low density anti-mFc captured hANGPTL4(26-148)-mFc (˜68±4 RU) surface, or the surface of amino-coupled hANGPTL4(26-406)-His (R&D Systems) (450 RU) or amino-coupled cynomolgus monkey N-terminal region (amino acid residues 1-130 of SEQ ID NO:490) expressed with an C-terminal hexa-histidine tag (MfANGPTL4(1-130)-His) (1,028 RU). Kinetic analysis was performed to measure ka and kd, and KD values and half-life of antigen/antibody complex dissociation were calculated. The results are shown in Table 4 (H1H268P) and Table 5 (H1H284P).

hANGPTL5-His = molecular target: T4, hANGPTL5-His (Homo sapiens, UniProt Q86XS5); assay: BIACORE cross-reactivity, amine coupled hANGPTL5-His; assay type: binding; settings: for Specific RU, hANGPTL5-His: chip surface 5265 RU, mAb injected at 3.125-50 μg/mL
T4 construct: His; purchased Abnova Corp. H00253935-P01
T4 sequence (Q86XS5 26-388): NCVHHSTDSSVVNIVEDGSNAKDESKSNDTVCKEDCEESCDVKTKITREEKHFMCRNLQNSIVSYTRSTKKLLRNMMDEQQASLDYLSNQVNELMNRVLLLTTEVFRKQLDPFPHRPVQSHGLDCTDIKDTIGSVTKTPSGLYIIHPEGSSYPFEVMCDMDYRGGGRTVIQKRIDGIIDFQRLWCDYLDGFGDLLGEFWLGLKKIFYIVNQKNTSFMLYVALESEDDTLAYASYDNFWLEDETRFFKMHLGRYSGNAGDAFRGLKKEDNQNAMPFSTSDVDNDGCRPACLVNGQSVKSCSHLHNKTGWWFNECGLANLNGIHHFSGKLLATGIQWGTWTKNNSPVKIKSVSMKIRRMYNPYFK
Method: as §1

[4] = pH 5.75, 25° C., antigen captured 27 ± 0.6 RU
[5] = pH 7.2, 25° C., antigen captured 35 ± 1.9 RU

Response bound at 50 nM mAb or Fab (RU) (hANGPTL4(26-148)-mFc [2]; [4]): 171
Response bound at 50 nM mAb or Fab (RU) (hANGPTL4(26-148)-mFc [2]; [5]): 99
binding to mANGPTL4-His (other related ANGPTL protein), in words (mANGPTL4-His): did not bind
Specific RU, mANGPTL4-His (mANGPTL4-His): 18 RU
binding to hANGPTL4-His, in words (hANGPTL4-His): bound specifically
Specific RU, hANGPTL4-His (hANGPTL4-His): 1351 RU
ka (hANGPTL4(26-148)-mFc [3]; pH 5.75, 25° C.): 1.09e+06 M⁻¹ s⁻¹
kd (hANGPTL4(26-148)-mFc [3]; pH 5.75, 25° C.): 8.91e-05 s⁻¹
ka (hANGPTL4(26-148)-mFc [3]; pH 7.2, 25° C.): 274000 M⁻¹ s⁻¹
kd (hANGPTL4(26-148)-mFc [3]; pH 7.2, 25° C.): 5.36e-05 s⁻¹
binding to hANGPTL5-His (other related ANGPTL protein), in words (hANGPTL5-His): did not bind
Specific RU, hANGPTL5-His (hANGPTL5-His): −13 RU
B1: H1H284P: anti-hANGPTL4 antibody, hIgG1 isotype, HCVR/LCVR SEQ ID NOs 90/92 (antibody, V domains shown)
VH: QVQLVESGGGVVQPGRSLRLSCAASGFTFSSYGMHWVRQAPGKGLEWMAVISFDGGNKNNADSVKGRFTISRDNSKNTLYLQMNSLRAEDTAVYYCAKEGDRSGHPYFYYYGLDVWGQGTTVTVS
VL: DIQLTQSPSFLSASVGDRVTITCWASQGISSYLAWYQQKPGKAPKLLIYAASTLQSGVPSRFSGSGSETEFTLTISSLQPEDFATYYCQQLHSYPLTFGGGTKVEIK
HDL [1]: 39.60 ± 3.46 mg/dL
LDL [1]: 4.98 ± 0.87 mg/dL
NEFA-C [1]: 0.99 ± 0.11 mg/dL
Total-C [1]: 80.80 ± 6.40 mg/dL
Triglycerides [1]: 99.20 ± 9.52 mg/dL

Response bound at 50 nM mAb or Fab (RU) (hANGPTL4(26-148)-mFc [2]; [4]): 77
Response bound at 50 nM mAb or Fab (RU) (hANGPTL4(26-148)-mFc [2]; [5]): 40
binding to mANGPTL4-His (other related ANGPTL protein), in words (mANGPTL4-His): did not bind
Specific RU, mANGPTL4-His (mANGPTL4-His): −7 RU
binding to hANGPTL4-His, in words (hANGPTL4-His): bound specifically
Specific RU, hANGPTL4-His (hANGPTL4-His): 768 RU
ka (hANGPTL4(26-148)-mFc [3]; pH 5.75, 25° C.): 628000 M⁻¹ s⁻¹
kd (hANGPTL4(26-148)-mFc [3]; pH 5.75, 25° C.): 0.000138 s⁻¹
ka (hANGPTL4(26-148)-mFc [3]; pH 7.2, 25° C.): 153000 M⁻¹ s⁻¹
kd (hANGPTL4(26-148)-mFc [3]; pH 7.2, 25° C.): 9.59e-05 s⁻¹
binding to hANGPTL5-His (other related ANGPTL protein), in words (hANGPTL5-His): did not bind
Specific RU, hANGPTL5-His (hANGPTL5-His): −16 RU
B2: H1H268P: anti-hANGPTL4 antibody, hIgG1 isotype, HCVR/LCVR SEQ ID NOs 42/44 (antibody, V domains shown)
VH: QVQLQESGAGLLKPSETLSLTCTVYGGSFSIHHWTWIRHPPGKGLEWIGEINHRGSTNYNPSLKSRVTISIDTSKNQFSLKLSAVTAADTAVYYCARGLRFLDWLSSYFDYWGQGTLVTVSS
VL: DIQMTQSPSSLSASVGDRVTITCRASQGISDYLAWYQQKPGKVPNLLIYAASALQSGVPSRFSGSGSGTDFTLTISSLQPEDVATYYCQNYNTAPLTFGGGTKVEIK
HDL [1]: 35.94 ± 1.64 mg/dL
LDL [1]: 4.94 ± 0.51 mg/dL
NEFA-C [1]: 0.82 ± 0.04 mg/dL
Triglycerides [1]: 92.60 ± 11.44 mg/dL
